Our source for the activity (fold over no transposase) and activity values is patent publication US8309791.

Holding throughout (test): cell_activity
Data set [1] deals with Sleeping Beauty transposase SB11 (synthetic (reconstructed fish Tc1-like)?). Particulars: colony formation in PEGE cells.
In data set [2] the test system is rtTR-KRAB2S-M2 (Escherichia coli / Homo sapiens fusion?). Particulars: tet-off version, shCFTR1 expression with vs without doxycycline in pig fibroblasts.
Data set [3] deals with tTR-KRAB (Escherichia coli / Homo sapiens fusion?). Particulars: tet-on version, shCFTR1 expression with vs without doxycycline in pig fibroblasts.
In data set [4] the test system is Tol2 transposase. Particulars: colony formation in PEGE cells.
For data set [5], the system named is piggyBac transposase. Particulars: colony formation in PEGE cells; TTAA target.
In data set [6] the test system is Passport (PP, PPTN) transposase PTs1. Particulars: colony formation in PEGE cells.

In data set [1], “SB transposon inverted terminal repeats (pT2-FloxP-PTK, pKT2P-PTK)” came in with an activity (fold over no transposase) of 13.5. Turning to tet operator (TRE), the activity in data set [2] turned out to be 67 fold change; in data set [3], 64 fold change.

Take “mini Tol2 transposon inverted repeats (pGTol2P-PTK)”: the activity (fold over no transposase) in data set [4] was found to be 21. In turn, piggyBac LTR1/LTR2 (pPBTP-PTK) had an activity (fold over no transposase) in data set [5] of 28.

In turn, “PP transposon inverted repeats (pPTnP-PTK)” registered an activity (fold over no transposase) in data set [6] of 5.
